Source: PMC6720452, “Structural Basis for Recruitment of DAPK1 to the KLHL20 E3 Ligase” (Structure(London, England:1993), 2019)

Target: T1, KLHL20 Kelch domain (human, UniProt Q9Y2M5 303-605)
T1 construct: Kelch domain of human KLHL20, Uniprot Q9Y2M5 isoform 1, M303-E605; structure traced from residues 317 to 601; Used for SPR (amine-coupled) and crystallisation; also called untagged KLHL20 Kelch; source: E. coli BL21(DE3)R3-pRARE2, purified (nickel sepharose, size exclusion, anion exchange)
T1 sequence (looked up): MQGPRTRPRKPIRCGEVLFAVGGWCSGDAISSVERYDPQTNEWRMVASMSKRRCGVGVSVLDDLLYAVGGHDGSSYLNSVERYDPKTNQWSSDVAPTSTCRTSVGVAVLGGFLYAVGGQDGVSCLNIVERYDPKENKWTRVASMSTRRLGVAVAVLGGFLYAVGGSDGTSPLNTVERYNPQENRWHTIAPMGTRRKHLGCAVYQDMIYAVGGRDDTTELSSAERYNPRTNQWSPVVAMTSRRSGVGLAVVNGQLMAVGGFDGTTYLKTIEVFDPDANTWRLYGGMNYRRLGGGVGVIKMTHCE
Assay: crystal structure; KLHL20 Kelch domain 12 mg/mL with 3 mM DAPK1 peptide; sitting drop, 2 M sodium chloride, 0.1 M acetate pH 4.5, 20°C; 1.1 Å
Settings: both partners purified

B1: 11-residue DAPK1 peptide (crystallization peptide) (peptide)
peptide: LGLPDLVAKYN
notes: also called LT1342; source: synthetic peptide, bought: LifeTein
B1: binds.
